Common to all, as to assay: SPR, captured via anti-human kappa, soluble ECD injected
Test [1] deals with T1, Soluble human cMet extracellular domain (ECD) protein (human, UniProt P08581 25-932).
T1 construct: extracellular domain; His-tagged

For test [2], the target named is T2, Soluble human HER-2 extracellular domain (ECD) protein (human, UniProt P04626 23-652).
T2 construct: extracellular domain; His-tagged

For test [3], the target named is T3, Soluble human EGFR ECD protein (human, UniProt P00533 25-645).
T3 construct: extracellular domain; His-tagged

Among the data in patent publication US20240132626A1 (Eli Lilly, published 2024) are Kd, koff and kon values, retold here.

T1 sequence (P08581 25-932): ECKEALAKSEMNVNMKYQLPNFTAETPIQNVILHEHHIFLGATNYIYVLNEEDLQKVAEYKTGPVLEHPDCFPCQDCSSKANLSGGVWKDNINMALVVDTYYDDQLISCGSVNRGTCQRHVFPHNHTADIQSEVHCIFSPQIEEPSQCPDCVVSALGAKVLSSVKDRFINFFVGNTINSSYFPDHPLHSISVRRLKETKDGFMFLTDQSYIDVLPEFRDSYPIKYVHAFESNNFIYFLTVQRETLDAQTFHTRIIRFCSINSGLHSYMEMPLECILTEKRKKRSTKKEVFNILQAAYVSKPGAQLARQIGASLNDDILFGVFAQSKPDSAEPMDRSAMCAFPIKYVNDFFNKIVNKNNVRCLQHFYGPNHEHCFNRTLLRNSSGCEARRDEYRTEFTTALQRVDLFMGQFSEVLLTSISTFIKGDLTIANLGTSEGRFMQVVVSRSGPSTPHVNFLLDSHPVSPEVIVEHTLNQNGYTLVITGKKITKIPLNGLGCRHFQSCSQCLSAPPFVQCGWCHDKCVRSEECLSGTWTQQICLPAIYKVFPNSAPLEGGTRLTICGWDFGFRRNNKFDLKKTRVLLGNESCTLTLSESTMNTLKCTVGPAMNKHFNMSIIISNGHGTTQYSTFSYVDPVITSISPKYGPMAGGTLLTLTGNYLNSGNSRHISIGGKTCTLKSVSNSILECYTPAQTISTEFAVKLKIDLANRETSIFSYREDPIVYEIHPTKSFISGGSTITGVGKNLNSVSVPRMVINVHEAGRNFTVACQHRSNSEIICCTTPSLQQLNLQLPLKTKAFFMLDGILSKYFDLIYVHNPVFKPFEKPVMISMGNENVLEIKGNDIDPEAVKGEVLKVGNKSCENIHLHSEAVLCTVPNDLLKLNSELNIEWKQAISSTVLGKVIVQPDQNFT

B1: HER-2 X EGFR X cMet TsAb_HHL (other)
heavy: EVQLVESGGGLVQPGGSLRLSCAASGFTFTDYTMDWVRKAPGKGLEWVADVNPNSGGSIYNQEFKGRFTLSVDRSKNTLYLQMNSLRAEDTAVYYCARNLGPSFYFDYWGQGTLVTVSSASTKGPSVFPLAPSSKSTSGGTAALGCLVKDYFPEPVTVSWNSGALTSGVATGPAVLQSSGLYSLSSVVTVPSSSLGTQTYICNVNHKPSNTKVDKKVEPKSCGGGGSGGGGSGGGGSQVQLVQSGAEVKKPGASVKVSCKASGYTFTSHWMHWVRYAPGQGLEWIGEFNPSNGRTNYNEKFKSKATMTVDTSTNTAYMELSSLRSEDTAVYYCASRDYDYDGRYFDYWGQGTLVTVSSASTKGPSVFPLAPCSKSTSGGTAALGCLVKDYFPEPVTVSWNSGALTSGVHTFPAVLQSSGLYSLSSVVTVPSSSLGTQTYICNVNHKPSNTKVDKKVEPDSGGGGGSGGGGSGGGGSDIQMTQSPSSLSASVGDRVTITCKSSQSLLYTSSQKNYLAWYQQKPGDAPKLLIYWASTRESGVPSRFSGSGSGTDFTLTISSLQPEDFATYYCQQYYAYPWTFGQGTKVEIKRTVAAPSVFIFPPSDKQLKSGTARVVCLLNNFYPREAKVQWKVDNALQSGNSQESVTEQDSKDSTYSLISTLTLSKADYEKHKVYACEVTHQGLSSPVTKSFNRGECHHHHHHHH
light 1: RIQMTQSPSSLSASVGDRVTITCKASQDVSIGVAWYQDKPGKAPKLLIYSASYRYTGVPSRFSGSGSGTDFTLTISSLQPEDFATYYCQQYYIYPYTFGQGTKVEIKGQPKAAPSVTLFPPSSEELQANKATLVCYISDFYPGAVTVAWKADSSPVKAGVETTTPSKQSNNKYAAWSYLSLTPEQWKSHRSYSCQVTHEGSTVEKTVAPTEC
light 2: DIQMTQSPSSLSASVGDRVTITCSASSSVTYMYWYQRKPGKAPKLLIYDTSNLASGVPSRFSGSGSGTDYTFTISSLQPEDIATYYCQQWSSHIFTFGQGTKVEIKRTVAAPSVFIFPPSKEQLKSGTASVVCLLNNFYPREAKVQWKVDNALQSGNSQESVTEQDSKDSTYSLSSTLTLSKADYEKHKVYACEVTHQGLSSPVTKSFNRGEC
chain: EVQLVESGGGLVQPGGSLRLSCAASGYTFTSYWLHWVRQAPGKGLEWVGMIDPSNSDTRFNPNFKDRFTISADTSKNTAYLQMNSLRAEDTAVYYCATYRSYVTPLDYWGRGTLVTVSSASTKGPSVFPLAPSSKSTSGGTAALGCLVADYFPEPVTVSWNSGALTSGVHTFPAVLQSSGLYSLSSVVTVPSSSLGTQTYICNVNHKPSNTKVDERVEPKSC
notes: Tandem Fab trispecific antibody without Fc
On to B1, for which the Kd – broadly, the free concentration of one partner at which half of the binding sites on the other are occupied at equilibrium, for simple one-to-one binding – in test [1] worked out at 0.54 nM; in test [2] it was 0.7 nM; in test [3] it was 10 nM. Besides, the koff (usually the rate constant with which the complex falls apart) amounted to 0.00014 s⁻¹ in test [1], 0.00021 s⁻¹ in test [2] and 0.0058 s⁻¹ in test [3]. Besides, the kon – broadly, the rate constant with which the complex forms – is 260000 M⁻¹ s⁻¹ in test [1], 300000 M⁻¹ s⁻¹ in test [2] and 560000 M⁻¹ s⁻¹ in test [3].
